One assay concerns the target T1, human IL-2Rβ (human, UniProt P14784 27-240, limits assumed).
T1 construct: also called hIL-2Rβ; IL-2 receptor beta
T1 sequence (looked up): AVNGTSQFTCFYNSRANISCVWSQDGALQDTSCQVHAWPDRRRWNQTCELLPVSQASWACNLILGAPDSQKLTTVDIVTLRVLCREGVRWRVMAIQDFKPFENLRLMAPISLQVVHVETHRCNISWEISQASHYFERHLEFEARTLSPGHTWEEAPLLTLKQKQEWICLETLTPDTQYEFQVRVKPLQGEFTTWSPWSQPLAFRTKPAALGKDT
Description: SPR, steady state. (In SPR one partner is held on a chip, and binding of the other changes the refractive index at the surface.)

A further assay deals with T2, human IL-15Rα (human, UniProt Q13261 31-205, limits assumed).
T2 construct: also called hIL-15Rα; IL-15 receptor alpha
T2 sequence (Q13261 31-205 limits assumed): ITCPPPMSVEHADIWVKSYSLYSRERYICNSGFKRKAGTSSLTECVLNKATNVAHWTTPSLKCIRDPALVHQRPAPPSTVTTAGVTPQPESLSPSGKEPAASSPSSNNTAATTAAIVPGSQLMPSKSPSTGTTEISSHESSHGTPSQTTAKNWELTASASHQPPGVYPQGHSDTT
As to the kind of experiment: SPR, steady state.

This note sets out measurements from patent US20210324028A1 (Pfizer, published 2021).

B1: hIL-15 V49R/K11D (ligand)
chain: NWVNVISDLKDIEDLIQSMHIDATLYTESDVHPSCKVTAMKCFLLELQRISLESGDASIHDTVENLIILANNSLSSNGNVTESGCKECEELEEKNIKEFLQSFVHIVQMFINTGGGGSGHHHHHHHHGGGLNDIFEAQKIEWHE
Consider B1, for which the Kd with human IL-2Rβ was more than 500 nM; in the assay with human IL-15Rα, 242 nM.

B2: hIL-15 V49R/L69I (ligand)
chain: NWVNVISDLKKIEDLIQSMHIDATLYTESDVHPSCKVTAMKCFLLELQRISLESGDASIHDTVENLIIIANNSLSSNGNVTESGCKECEELEEKNIKEFLQSFVHIVQMFINTGGGGSGHHHHHHHHGGGLNDIFEAQKIEWHE
As for B2, the Kd came to 306 nM in the assay with human IL-2Rβ and 93.1 nM with human IL-15Rα.

B3: hIL-15 V49R/N1A (ligand)
chain: AWVNVISDLKKIEDLIQSMHIDATLYTESDVHPSCKVTAMKCFLLELQRISLESGDASIHDTVENLIILANNSLSSNGNVTESGCKECEELEEKNIKEFLQSFVHIVQMFINTGGGGSGHHHHHHHHGGGLNDIFEAQKIEWHE
B3: the Kd in the assay with human IL-2Rβ stood at 398 nM; with human IL-15Rα, 175 nM.

B4: hIL-15 V49R/L69A (ligand)
chain: NWVNVISDLKKIEDLIQSMHIDATLYTESDVHPSCKVTAMKCFLLELQRISLESGDASIHDTVENLIIAANNSLSSNGNVTESGCKECEELEEKNIKEFLQSFVHIVQMFINTGGGGSGHHHHHHHHGGGLNDIFEAQKIEWHE
Take B4: the Kd with human IL-2Rβ was more than 500 nM; with human IL-15Rα, 82.9 nM.

B5: hIL-15 V49R/M109A (ligand)
chain: NWVNVISDLKKIEDLIQSMHIDATLYTESDVHPSCKVTAMKCFLLELQRISLESGDASIHDTVENLIILANNSLSSNGNVTESGCKECEELEEKNIKEFLQSFVHIVQAFINTGGGGSGHHHHHHHHGGGLNDIFEAQKIEWHE
Regarding B5, the Kd was more than 500 nM with human IL-2Rβ and 198 nM in the assay with human IL-15Rα.

B6: hIL-15 V49R/K11E (ligand)
chain: NWVNVISDLKEIEDLIQSMHIDATLYTESDVHPSCKVTAMKCFLLELQRISLESGDASIHDTVENLIILANNSLSSNGNVTESGCKECEELEEKNIKEFLQSFVHIVQMFINTGGGGSGHHHHHHHHGGGLNDIFEAQKIEWHE
Turning to B6, the figures for the Kd with human IL-2Rβ and in the assay with human IL-15Rα were 160 nM and 159 nM, respectively.

B7: hIL-15 V49R/M109K (ligand)
chain: NWVNVISDLKKIEDLIQSMHIDATLYTESDVHPSCKVTAMKCFLLELQRISLESGDASIHDTVENLIILANNSLSSNGNVTESGCKECEELEEKNIKEFLQSFVHIVQKFINTGGGGSGHHHHHHHHGGGLNDIFEAQKIEWHE
B7: the Kd with human IL-2Rβ was more than 500 nM; with human IL-15Rα, 215 nM.

B8: hIL-15 V49R/L69M (ligand)
chain: NWVNVISDLKKIEDLIQSMHIDATLYTESDVHPSCKVTAMKCFLLELQRISLESGDASIHDTVENLIIMANNSLSSNGNVTESGCKECEELEEKNIKEFLQSFVHIVQMFINTGGGGSGHHHHHHHHGGGLNDIFEAQKIEWHE
As for B8, the Kd in the assay with human IL-2Rβ is more than 1000 nM; with human IL-15Rα, 74.5 nM.

B9: hIL-15 V49R/K11L (ligand)
chain: NWVNVISDLKLIEDLIQSMHIDATLYTESDVHPSCKVTAMKCFLLELQRISLESGDASIHDTVENLIILANNSLSSNGNVTESGCKECEELEEKNIKEFLQSFVHIVQMFINTGGGGSGHHHHHHHHGGGLNDIFEAQKIEWHE
B9: the Kd amounted to 92.2 nM with human IL-2Rβ and 142 nM in the assay with human IL-15Rα.

B10: hIL-15 V49R/K11R (ligand)
chain: NWVNVISDLKRIEDLIQSMHIDATLYTESDVHPSCKVTAMKCFLLELQRISLESGDASIHDTVENLIILANNSLSSNGNVTESGCKECEELEEKNIKEFLQSFVHIVQMFINTGGGGSGHHHHHHHHGGGLNDIFEAQKIEWHE
Turning to B10, the Kd in the assay with human IL-2Rβ amounted to 138 nM; in the assay with human IL-15Rα, 140 nM.

B11: hIL-15 V49R/L69V (ligand)
chain: NWVNVISDLKKIEDLIQSMHIDATLYTESDVHPSCKVTAMKCFLLELQRISLESGDASIHDTVENLIIVANNSLSSNGNVTESGCKECEELEEKNIKEFLQSFVHIVQMFINTGGGGSGHHHHHHHHGGGLNDIFEAQKIEWHE
On to B11, for which the equilibrium dissociation constant (Kd) in the assay with human IL-2Rβ is more than 1000 nM; with human IL-15Rα it was 85.5 nM.

B12: hIL-15 V49R/K11T (ligand)
chain: NWVNVISDLKTIEDLIQSMHIDATLYTESDVHPSCKVTAMKCFLLELQRISLESGDASIHDTVENLIILANNSLSSNGNVTESGCKECEELEEKNIKEFLQSFVHIVQMFINTGGGGSGHHHHHHHHGGGLNDIFEAQKIEWHE
As for B12, the Kd with human IL-2Rβ turned out to be 225 nM; in the assay with human IL-15Rα, 169 nM.

B13: hIL-15 V49R/M109D (ligand)
chain: NWVNVISDLKKIEDLIQSMHIDATLYTESDVHPSCKVTAMKCFLLELQRISLESGDASIHDTVENLIILANNSLSSNGNVTESGCKECEELEEKNIKEFLQSFVHIVQDFINTGGGGSGHHHHHHHHGGGLNDIFEAQKIEWHE
For the molecule B13, the Kd with human IL-2Rβ is 339 nM; with human IL-15Rα, 288 nM.

B14: hIL-15 V49R/L69S (ligand)
chain: NWVNVISDLKKIEDLIQSMHIDATLYTESDVHPSCKVTAMKCFLLELQRISLESGDASIHDTVENLIISANNSLSSNGNVTESGCKECEELEEKNIKEFLQSFVHIVQMFINTGGGGSGHHHHHHHHGGGLNDIFEAQKIEWHE
Turning to B14, the Kd with human IL-2Rβ was more than 500 nM; in the assay with human IL-15Rα, 78.2 nM.

B15: hIL-15 V49R/K11I (ligand)
chain: NWVNVISDLKIIEDLIQSMHIDATLYTESDVHPSCKVTAMKCFLLELQRISLESGDASIHDTVENLIILANNSLSSNGNVTESGCKECEELEEKNIKEFLQSFVHIVQMFINTGGGGSGHHHHHHHHGGGLNDIFEAQKIEWHE
For B15, the dissociation constant (Kd) with human IL-2Rβ turned out to be 76 nM; with human IL-15Rα it was 95.8 nM.

B16: hIL-15 V49R/M109S (ligand)
chain: NWVNVISDLKKIEDLIQSMHIDATLYTESDVHPSCKVTAMKCFLLELQRISLESGDASIHDTVENLIILANNSLSSNGNVTESGCKECEELEEKNIKEFLQSFVHIVQSFINTGGGGSGHHHHHHHHGGGLNDIFEAQKIEWHE
Consider B16, for which the Kd was found to be 362 nM in the assay with human IL-2Rβ and 190 nM with human IL-15Rα.

B17: hIL-15 V49R/K11N (ligand)
chain: NWVNVISDLKNIEDLIQSMHIDATLYTESDVHPSCKVTAMKCFLLELQRISLESGDASIHDTVENLIILANNSLSSNGNVTESGCKECEELEEKNIKEFLQSFVHIVQMFINTGGGGSGHHHHHHHHGGGLNDIFEAQKIEWHE
B17: the figures for the Kd in the assay with human IL-2Rβ and with human IL-15Rα were 291 nM and 217 nM, respectively.

B18: hIL-15 V49R/L69D (ligand)
chain: NWVNVISDLKKIEDLIQSMHIDATLYTESDVHPSCKVTAMKCFLLELQRISLESGDASIHDTVENLIIDANNSLSSNGNVTESGCKECEELEEKNIKEFLQSFVHIVQMFINTGGGGSGHHHHHHHHGGGLNDIFEAQKIEWHE
As to B18, the Kd is more than 500 nM with human IL-2Rβ and 65.6 nM in the assay with human IL-15Rα.

B19: hIL-15 V49R/L69E (ligand)
chain: NWVNVISDLKKIEDLIQSMHIDATLYTESDVHPSCKVTAMKCFLLELQRISLESGDASIHDTVENLIIEANNSLSSNGNVTESGCKECEELEEKNIKEFLQSFVHIVQMFINTGGGGSGHHHHHHHHGGGLNDIFEAQKIEWHE
Turning to B19, the values for the Kd in the assay with human IL-2Rβ and with human IL-15Rα were more than 1000 nM and 47.8 nM, respectively.

B20: hIL-15 V49R/K11Y (ligand)
chain: NWVNVISDLKYIEDLIQSMHIDATLYTESDVHPSCKVTAMKCFLLELQRISLESGDASIHDTVENLIILANNSLSSNGNVTESGCKECEELEEKNIKEFLQSFVHIVQMFINTGGGGSGHHHHHHHHGGGLNDIFEAQKIEWHE
Consider B20, for which the dissociation constant Kd with human IL-2Rβ is 143 nM; with human IL-15Rα, 219 nM.

B21: hIL-15 V49R/K11H (ligand)
chain: NWVNVISDLKHIEDLIQSMHIDATLYTESDVHPSCKVTAMKCFLLELQRISLESGDASIHDTVENLIILANNSLSSNGNVTESGCKECEELEEKNIKEFLQSFVHIVQMFINTGGGGSGHHHHHHHHGGGLNDIFEAQKIEWHE
As for B21, the values for the Kd with human IL-2Rβ and with human IL-15Rα were 104 nM and 147 nM, respectively.

B22: hIL-15 V49R/L69T (ligand)
chain: NWVNVISDLKKIEDLIQSMHIDATLYTESDVHPSCKVTAMKCFLLELQRISLESGDASIHDTVENLIITANNSLSSNGNVTESGCKECEELEEKNIKEFLQSFVHIVQMFINTGGGGSGHHHHHHHHGGGLNDIFEAQKIEWHE
B22: the results for the Kd in the assay with human IL-2Rβ and with human IL-15Rα were more than 1000 nM and 63.6 nM, respectively.

B23: hIL-15 V49R/K11V (ligand)
chain: NWVNVISDLKVIEDLIQSMHIDATLYTESDVHPSCKVTAMKCFLLELQRISLESGDASIHDTVENLIILANNSLSSNGNVTESGCKECEELEEKNIKEFLQSFVHIVQMFINTGGGGSGHHHHHHHHGGGLNDIFEAQKIEWHE
With B23, the results for the Kd with human IL-2Rβ and with human IL-15Rα were 110 nM and 142 nM, respectively.

B24: hIL-15 V49R/K11Q (ligand)
chain: NWVNVISDLKQIEDLIQSMHIDATLYTESDVHPSCKVTAMKCFLLELQRISLESGDASIHDTVENLIILANNSLSSNGNVTESGCKECEELEEKNIKEFLQSFVHIVQMFINTGGGGSGHHHHHHHHGGGLNDIFEAQKIEWHE
Take B24: the Kd with human IL-2Rβ came out at 107 nM; with human IL-15Rα, 156 nM.

B25: hIL-15 V49R/K11S (ligand)
chain: NWVNVISDLKSIEDLIQSMHIDATLYTESDVHPSCKVTAMKCFLLELQRISLESGDASIHDTVENLIILANNSLSSNGNVTESGCKECEELEEKNIKEFLQSFVHIVQMFINTGGGGSGHHHHHHHHGGGLNDIFEAQKIEWHE
In the case of B25, the figures for the Kd in the assay with human IL-2Rβ and with human IL-15Rα were 453 nM and 194 nM, respectively.

What is called Kd is the constant that tells how readily two partners part at equilibrium. Higher therefore signals lower affinity.
